{"source": "patent US5686592", "about": "“High-affinity oligonucleotide ligands to immunoglobulin E (IgE)” (NeXstar Pharmaceuticals, Inc.)", "binders": {"B1": {"name": "D2.0 (ssDNA)", "DNA": "CTACCTACGATCTGACTAGCGGCCGGAGCTTTATCCGTTACTCTCAGTGGGTGACTGTCGCTTACTCTCATGTAGTTCC"}, "B2": {"name": "D31.0 (ssDNA)", "DNA": "CTACCTACGATCTGACTAGCACGGGTGAGTTGATCCGTCACTCTTAGTGGTGAACCTTGTGCTTACTCTCATGTAGTTCC"}, "B3": {"name": "D11.0 (ssDNA)", "DNA": "CTACCTACGATCTGACTAGCACCGGAGTACTTCATCCGTCCCTTCTAGTGGGTACCCGTAGCTTACTCTCATGTAGTTCC"}}, "conditions_in_all_cases": "tags: Athens Research Technology; chain copies: 2; label: 5' 32P", "key": {"human IgE [1]": {"molecular_target": "T1, human IgE (Homo sapiens, UniProt P01854-1 P01854-1:1-428)", "T1 sequence (P01854 other isoform, or with tags, fused parts or gaps)": "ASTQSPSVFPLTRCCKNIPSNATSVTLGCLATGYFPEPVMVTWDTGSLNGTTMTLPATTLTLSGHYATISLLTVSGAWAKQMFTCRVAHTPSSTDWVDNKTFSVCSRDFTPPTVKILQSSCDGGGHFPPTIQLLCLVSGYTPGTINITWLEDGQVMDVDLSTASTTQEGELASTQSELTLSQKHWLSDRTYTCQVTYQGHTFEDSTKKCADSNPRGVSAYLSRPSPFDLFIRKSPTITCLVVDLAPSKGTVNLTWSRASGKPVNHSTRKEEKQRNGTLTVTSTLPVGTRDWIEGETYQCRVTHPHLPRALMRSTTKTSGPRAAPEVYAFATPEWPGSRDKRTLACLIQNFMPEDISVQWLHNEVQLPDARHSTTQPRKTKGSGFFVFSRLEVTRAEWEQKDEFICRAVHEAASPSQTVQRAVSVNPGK", "assay": "filter; modified PBS, 1 mM Mg2+, 37 C; D2.0 taken as clone D002", "description": "Affinities of representative DNA ligands for human IgE were determined by nitrocellulose filter binding experiments and the K_Ds are listed in Table 7. […] Individual clones tested from this pool have affinities in the same range. The affinities were not expected to vary widely since the enriched DNA pool is very homogenous. Ligand D17.0 was picked for truncation experiments. […] However, the affinity could be restored to the level of the full-length ligand by the addition of a 4 basepair stem resulting in the 37 base truncate D17.4. It is possible that the stem in D17.1 is not stable enough to prevent the formation of an alternative secondary structure and that the additional base pair in D17.4 lock in the conformation necessary for IgE binding."}, "human IgE [2]": {"molecular_target": "T1, human IgE", "assay": "filter; modified PBS, 1 mM Mg2+, 37 C; D31.0 taken as clone D031"}, "human IgE [3]": {"molecular_target": "T1, human IgE", "assay": "filter; modified PBS, 1 mM Mg2+, 37 C; D11.0 taken as clone D011"}}}
{"binder": "B1", "values": [{"measurement": "Kd", "setting": "human IgE [1]", "result": 6, "unit": "nM"}]}
{"binder": "B2", "values": [{"measurement": "Kd", "setting": "human IgE [2]", "result": 22, "unit": "nM"}]}
{"binder": "B3", "values": [{"measurement": "Kd", "setting": "human IgE [3]", "result": 8, "unit": "nM"}]}
